The numbers were not newly measured in paper PMC9914670, which cites them from elsewhere.

For data set [1], the target named is ATP5B (F1 ATPase beta subunit) (Homo sapiens) (UniProt P06576). Kind of data set: ELISA. For orientation: In an ELISA, binding on a coated surface is turned into a signal by an enzyme label.
In data set [2] the target is ATP5A1/5B complex (Homo sapiens) (UniProt P25705). Kind of data set: ELISA.
For data set [3], the target named is ATP5A1 (F1 ATPase alpha subunit) (Homo sapiens) (UniProt P25705). Kind of data set: ELISA.
ATP5A1 (F1 ATPase alpha subunit) (Homo sapiens), sequence (P25705 44-553): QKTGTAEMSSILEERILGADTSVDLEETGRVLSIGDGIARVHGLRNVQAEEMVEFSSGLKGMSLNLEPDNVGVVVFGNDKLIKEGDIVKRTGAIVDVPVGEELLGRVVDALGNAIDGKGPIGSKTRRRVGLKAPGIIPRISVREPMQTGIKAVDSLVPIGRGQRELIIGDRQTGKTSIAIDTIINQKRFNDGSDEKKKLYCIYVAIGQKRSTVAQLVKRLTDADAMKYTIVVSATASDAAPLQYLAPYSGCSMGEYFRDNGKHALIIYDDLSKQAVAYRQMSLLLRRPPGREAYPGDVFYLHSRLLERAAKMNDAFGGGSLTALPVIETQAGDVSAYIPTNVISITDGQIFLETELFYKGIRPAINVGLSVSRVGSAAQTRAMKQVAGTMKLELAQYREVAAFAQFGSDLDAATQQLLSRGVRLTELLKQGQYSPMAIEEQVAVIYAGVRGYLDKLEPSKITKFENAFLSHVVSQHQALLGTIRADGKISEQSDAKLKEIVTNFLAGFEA
The target in data set [4] is TLR4/MD2 complex (Homo sapiens) (UniProt O00206). Briefly: QCM.
TLR4/MD2 complex (Homo sapiens), sequence (O00206 24-839, chain 1 of 2): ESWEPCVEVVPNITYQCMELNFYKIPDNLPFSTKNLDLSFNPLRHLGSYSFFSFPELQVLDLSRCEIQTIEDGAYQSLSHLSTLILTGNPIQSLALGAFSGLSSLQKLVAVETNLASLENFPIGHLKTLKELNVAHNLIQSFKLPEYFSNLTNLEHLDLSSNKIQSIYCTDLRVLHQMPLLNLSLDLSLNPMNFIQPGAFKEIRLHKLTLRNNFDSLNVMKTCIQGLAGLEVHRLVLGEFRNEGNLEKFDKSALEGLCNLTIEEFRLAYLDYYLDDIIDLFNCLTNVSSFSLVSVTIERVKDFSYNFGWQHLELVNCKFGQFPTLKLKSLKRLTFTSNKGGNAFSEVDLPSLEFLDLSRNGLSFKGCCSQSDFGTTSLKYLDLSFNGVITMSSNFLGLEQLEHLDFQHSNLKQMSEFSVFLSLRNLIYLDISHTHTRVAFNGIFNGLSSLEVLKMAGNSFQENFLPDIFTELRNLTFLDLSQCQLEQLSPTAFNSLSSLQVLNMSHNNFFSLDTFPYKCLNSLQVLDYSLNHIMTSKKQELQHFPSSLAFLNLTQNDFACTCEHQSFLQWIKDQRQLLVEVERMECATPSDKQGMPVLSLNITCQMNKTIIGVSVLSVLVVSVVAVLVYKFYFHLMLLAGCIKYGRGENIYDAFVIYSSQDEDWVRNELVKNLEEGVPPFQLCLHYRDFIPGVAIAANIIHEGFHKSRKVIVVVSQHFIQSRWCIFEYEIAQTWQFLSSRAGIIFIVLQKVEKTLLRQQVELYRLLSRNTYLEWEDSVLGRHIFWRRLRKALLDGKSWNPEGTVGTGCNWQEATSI
TLR4/MD2 complex (Homo sapiens), sequence (Q9Y6Y9 19-160, chain 2 of 2, further chain): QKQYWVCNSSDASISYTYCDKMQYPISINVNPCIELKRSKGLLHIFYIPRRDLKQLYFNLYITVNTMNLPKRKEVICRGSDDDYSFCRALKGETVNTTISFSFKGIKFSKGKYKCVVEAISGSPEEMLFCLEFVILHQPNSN
For data set [5], the target named is ATP5A1/5B complex (Homo sapiens) (UniProt P25705). Kind of data set: QCM.

Prothymosin alpha, sequence (P06302 2-112): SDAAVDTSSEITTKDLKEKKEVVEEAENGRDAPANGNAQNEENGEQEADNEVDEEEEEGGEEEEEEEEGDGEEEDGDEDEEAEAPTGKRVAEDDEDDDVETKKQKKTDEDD
ATP5A1/5B complex (Homo sapiens), sequence (P25705 44-553, chain 1 of 2): as the sequence (P25705 44-553) above
ATP5A1/5B complex (Homo sapiens), sequence (P06576 48-529, chain 2 of 2, further chain): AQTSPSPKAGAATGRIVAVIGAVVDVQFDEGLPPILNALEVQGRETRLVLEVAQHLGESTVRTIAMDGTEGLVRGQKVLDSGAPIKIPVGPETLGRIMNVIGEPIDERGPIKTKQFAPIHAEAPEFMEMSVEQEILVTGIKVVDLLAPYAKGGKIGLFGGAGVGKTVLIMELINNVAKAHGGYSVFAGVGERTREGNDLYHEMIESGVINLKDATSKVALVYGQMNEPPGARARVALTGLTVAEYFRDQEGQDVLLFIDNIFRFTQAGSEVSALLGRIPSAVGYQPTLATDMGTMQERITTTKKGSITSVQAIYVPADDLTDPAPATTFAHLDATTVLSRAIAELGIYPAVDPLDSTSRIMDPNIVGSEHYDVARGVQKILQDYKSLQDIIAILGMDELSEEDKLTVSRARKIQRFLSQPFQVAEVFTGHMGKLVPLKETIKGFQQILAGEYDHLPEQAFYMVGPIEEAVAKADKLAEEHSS
ATP5B (F1 ATPase beta subunit) (Homo sapiens), sequence (P06576 48-529): as the sequence (P06576 48-529, chain 2 of 2, further chain) above

The Kd is the free concentration of one partner at which half of the binding sites on the other are occupied at equilibrium, for simple one-to-one binding. For the substance Prothymosin alpha (from UniProt P06302), the Kd in data set [1] is 241 nM; in data set [2] it was 55.8 nM; in data set [3] it was 68 nM; in data set [4], 16100 nM; in data set [5] it was 28.1 nM.
